Reference: publication PMC10454739, “Further Developments towards a Minimal Potent Derivative of Human Relaxin-2” (International Journal of Molecular Sciences, 2023)

Columns and labels:
[1] = target: T1, 7BP (RXFP1 ectodomain fused to the single trans-membrane-spanning domain of CD8) (Homo sapiens, UniProt Q9HBX9); assay: Competitive binding assay with Eu3+-labeled H2 relaxin in HEK-7BP cells; settings: whole-cell competition binding vs Eu3+-labeled H2 relaxin, HEK cells expressing 7BP; one-site fit; mean ± S.E.M., n of experiments in brackets
T1 construct: contains the RXFP1 ectodomain fused to the single trans-membrane-spanning domain of CD8; expressed in transfected cells; host or cells: HEK cells (HEK-7BP)
T1 sequence (Q9HBX9 1-409 limits assumed): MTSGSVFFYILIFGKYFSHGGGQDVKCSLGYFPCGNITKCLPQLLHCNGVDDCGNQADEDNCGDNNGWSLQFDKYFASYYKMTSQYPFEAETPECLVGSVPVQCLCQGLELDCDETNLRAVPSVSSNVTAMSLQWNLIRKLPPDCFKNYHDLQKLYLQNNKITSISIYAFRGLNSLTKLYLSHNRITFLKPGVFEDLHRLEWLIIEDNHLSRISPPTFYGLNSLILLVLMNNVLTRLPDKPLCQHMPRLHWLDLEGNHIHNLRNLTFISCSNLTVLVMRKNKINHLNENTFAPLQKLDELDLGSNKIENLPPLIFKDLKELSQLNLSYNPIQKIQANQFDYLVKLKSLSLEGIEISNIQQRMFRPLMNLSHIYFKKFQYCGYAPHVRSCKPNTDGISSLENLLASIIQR
Procedure: Human embryonic kidney (HEK-293T) cells stably transfected with RXFP1 were cultured in RPMI 1640 medium supplemented with 10% fetal calf serum, 100 μg mL^−1 penicillin, 100 μg mL^−1 streptomycin, and 2 mM of L-glutamine and plated into 96-well plates pre-coated with poly-L-lysine for whole-cell binding assays (Merck, Darmstadt, Germany). Competition binding experiments using Eu^3+-labeled H2 relaxin in the absence or presence of increasing concentrations of unlabeled H2 relaxin B-chain derivatives were conducted as previously described [13]. All data are presented as the mean ± S.E.M. of the % specific binding of triplicate wells, repeated in at least three separate experiments, and curves were fitted using one-site binding curves in GraphPad Prism 9 (GraphPad Inc., San Diego, CA, USA).

RXFP1 = target: T2, RXFP1 (Homo sapiens, UniProt Q9HBX9); assay: cAMP activity assay in HEK-RXFP1 cells (pCRE β-gal reporter); assay type: cell-based; settings: HEK-RXFP1 cells stably transfected with pCRE β-gal reporter, 37 °C for 6 h; four-parameter fit; mean ± S.E.M., n in brackets
T2 construct: expressed in transfected cells; host or cells: HEK-293T
T2 sequence (Q9HBX9 1-757): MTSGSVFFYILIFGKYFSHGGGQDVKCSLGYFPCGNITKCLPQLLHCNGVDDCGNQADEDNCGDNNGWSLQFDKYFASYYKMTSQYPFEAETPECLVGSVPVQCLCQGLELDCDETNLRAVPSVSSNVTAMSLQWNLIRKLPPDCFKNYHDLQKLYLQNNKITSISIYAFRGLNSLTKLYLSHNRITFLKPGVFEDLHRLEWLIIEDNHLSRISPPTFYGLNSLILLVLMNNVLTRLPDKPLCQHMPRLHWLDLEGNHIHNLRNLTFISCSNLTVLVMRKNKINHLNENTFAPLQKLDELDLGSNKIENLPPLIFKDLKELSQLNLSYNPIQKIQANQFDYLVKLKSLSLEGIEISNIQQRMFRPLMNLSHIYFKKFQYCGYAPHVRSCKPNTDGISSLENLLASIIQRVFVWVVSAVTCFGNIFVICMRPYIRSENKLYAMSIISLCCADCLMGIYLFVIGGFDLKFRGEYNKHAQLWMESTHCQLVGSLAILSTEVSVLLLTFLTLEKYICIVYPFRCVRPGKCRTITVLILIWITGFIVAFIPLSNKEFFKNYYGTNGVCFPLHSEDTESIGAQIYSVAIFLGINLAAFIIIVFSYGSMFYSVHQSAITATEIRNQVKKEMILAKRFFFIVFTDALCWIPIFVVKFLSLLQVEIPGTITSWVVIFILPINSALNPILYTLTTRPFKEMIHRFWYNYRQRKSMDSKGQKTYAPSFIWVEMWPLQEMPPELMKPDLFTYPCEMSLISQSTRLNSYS
Procedure: The ability of peptide analogs to activate cAMP in HEK-RXFP1 cells stably transfected with a pCRE β-gal reporter gene construct was tested as described in detail previously [13]. Cells were stimulated with increasing concentrations of peptide analogs in parallel to H2 relaxin (positive) or media (negative) controls, then incubated at 37 °C for 6 h, after which the media were aspirated, and the cells were frozen at −80 °C overnight. The following day, cAMP-driven β-gal expression was determined in cell lysates as described [32]. Experiments were performed in triplicate at least 3 times, and data were fitted to a four-parameter sigmoidal dose–response curve using GraphPad Prism 9 to determine ligand potency (pEC50).

7BP Eu-H2 pKi [1]: < 5 | cAMP pEC50 (RXFP1): No activity
Substance: B13-31: N-terminally truncated single-chain H2 relaxin analog, residues 13–31 (RELVRAQIAICGMSTWSKR; Relaxin B chain; UniProt P04090 37-55, looked up, fragment)
